Experimental data: US20260217845A1 (ODYSSEY THERAPEUTICS, published 2026)

What was measured:
[1] = target: T1, mouse TNFR2 (extracellular domain) (mouse, UniProt P25119 23-258); assay: SPR (Carterra LSA), V-body coupled to HC200M chip, TNFR2 extracellular domain in solution
T1 construct: also called mTNFR2
T1 sequence: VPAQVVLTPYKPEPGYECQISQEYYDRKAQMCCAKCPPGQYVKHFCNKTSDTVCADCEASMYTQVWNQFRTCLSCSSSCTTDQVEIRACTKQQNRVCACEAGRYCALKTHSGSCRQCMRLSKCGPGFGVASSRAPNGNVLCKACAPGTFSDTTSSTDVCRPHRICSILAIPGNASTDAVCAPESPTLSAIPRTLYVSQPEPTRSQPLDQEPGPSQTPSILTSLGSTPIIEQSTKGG
Procedure: (§1) Binding affinities of the V-bodies to their respective target was determined by surface plasmon resonance (SPR) using a Caterra LSA instrument. Affinity purified V-bodies were covalently crosslinked onto an LSA HC200M chip using EDC/Sulfo NHS. The interaction with human, cynomolgus, and mouse TNFR2 (extracellular domain) (V-body coupling concentration: human, […]; cynomolgus/mouse, 4 μM) was measured under physiological conditions (Running Buffer: HBST-50 mM HEPES pH 7.4, 150 mM NaCl, 0.1% (w/v) BSA, 0.05% (v/v) Tween20, 25° C.) using eight different antigen concentrations (3-fold serial dilutions, start at 200 nM). Resulting sensorgrams (FIGS. 9A-9F) were analyzed and equilibrium-binding affinities (KDs) were calculated using Carterra's data analysis software.

[2] = target: T2, human TNFR2 (extracellular domain) (human, UniProt P20333 23-257); assay: SPR (Carterra LSA), V-body coupled to HC200M chip, TNFR2 extracellular domain in solution, 8 concentrations from 200 nM
T2 construct: also called hTNFR2; human tumor necrosis factor receptor 2
T2 sequence: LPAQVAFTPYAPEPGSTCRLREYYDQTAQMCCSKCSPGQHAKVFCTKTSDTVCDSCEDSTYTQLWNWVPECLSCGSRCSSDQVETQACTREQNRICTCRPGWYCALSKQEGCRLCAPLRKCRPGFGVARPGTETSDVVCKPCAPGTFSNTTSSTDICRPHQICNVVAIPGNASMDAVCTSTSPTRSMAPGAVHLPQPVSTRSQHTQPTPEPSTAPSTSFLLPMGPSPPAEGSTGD
Procedure: as §1

B1: ODY-31D6 (VHH)
VHH: EVQLVESGGGLVQAGGSLRLSCAASGSIVSTNGMGWHRQVPGKGRELVAGIRSDGFTNYADSVKGRFTISSDNVKNTVYLQMNSLKAEDSGVYFCYYQALSSPNYGQTFWGQGTQVTVSS
Question: Does B1 bind [1]?
Answer: Result: no binding (tested: 200 nM (highest antigen concentration))

Question: Does B1 bind [2]?
Answer: Result: binds

B2: ODY-31G3 (VHH)
VHH: EVQLVESGGGLVQAGGSLRVSCAASGSIFRADAMGWHRQVPGKPREFVAGIRSDGFTNYAEAVKGRFTISWDTVKNTVYLQMNSLKPEDTAVYTCYYQSLSSPNYGQVFWGQGTQVTVSS
Question: Which results are given for B2?
Answer: binding result [1]: no binding (tested: 200 nM (highest antigen concentration)); binding result [2]: binds

B3: ODY-33D4 (VHH)
VHH: EVQLVESGGGLVQAGGSLRLSCAASGRTFSDYGMGWFRQAPGKDSEFVAAINWSNGRTNYADSVKGRFTISRDNAKNTGYLEMNSLKVEDTAVYYCAATPSGKAYSYWGQGTQVTVSS
Question: Does B3 bind [1]?
Answer: Result: no binding (tested: 200 nM (highest antigen concentration))

Question: Does B3 bind [2]?
Answer: Result: binds

B4: ODY-35A10 (VHH)
VHH: EVQLVESGGGLVEAGGSLRLSCAASGRTFGSYTMGWFRQAPGREQEFLASIRRTGGSTSYADSVKGRFTISRDNAKKAVYLQMNSLKPEDTAVYYCAAAPTGRAFTYWGQGTQVTVSS
Question: Which results are given for B4?
Answer: binding result [1]: no binding (tested: 200 nM (highest antigen concentration)); binding result [2]: binds

B5: ODY-37C7 (VHH)
VHH: EVQLVESGGGLVQPGGSLRLSCAASGFTFDDIAMTWVRQAPGKGLEWVSSIYSYGPNTYYADSVKGRFTISTDSAKNTLYLQMNSLKPEDTAVYYCAADSDLSTVVVGPHDYWGQGTQVTVSS
Question: What does the source list for B5?
Answer: binding result [1]: no binding (tested: 200 nM (highest antigen concentration)); binding result [2]: binds
